According to article doi:10.1101/2020.03.10.986331:

molecular target: SPPV14ΔC31 (sheeppoxvirus SPPV14 residues 1-145, 31 residue C-terminal deletion) (sheeppoxvirus); test: ITC

Q: How did the Kd turn out when Hrk BH3 motif peptide (human, 26-mer) was run?
A: Its Kd is 39 nM.

Q: Which Kd does the source give for Bax BH3 motif peptide (human, 28-mer) here?
A: The Kd was 26 nM.

Q: For Bad BH3 motif peptide (human), which Kd is on record?
A: The Kd was 5200 nM.

Q: With VPGRLAEVCAVLLRLGDELEMIRPSV [Bok BH3 motif peptide (human, residues 59-84)] as the molecule, how does the Kd read?
A: Its Kd is 7600 nM.
